From US10184140B2, “Materials and methods for production of bi-functional fatty acids in recombinant bacteria” (IOWA STATE UNIVERSITY RESEARCH FOUNDATION, INC., priority 2013, dated 2019)
Entries after “also recorded” stand apart in the source; their conditions may differ. Read-outs that look alike come from different tables or passages of the source.

Key:
[1] = Spectrophotometric coupled assay (FabD/FabG, NADPH at 340 nm) of KASIII specific activity with acyl-CoA substrates; details: for Specific Activity with Isobutyryl-CoA: substrate isobutyryl-CoA
Description: The method comprises (i) incubating holo-ACP, malonyl-CoA, acyl-CoA, NADPH, and malonyl-CoA:ACP transacylase (FabD), (ii) adding KASIII and 3-ketoacyl-ACP reductase (FabG), and (iii) measuring the change in absorbance at 340 nm when NADPH is converted to NADP+ during reduction of 3-ketoacyl-ACP to 3-hydroxyl-acyl ACP by FabG.
Activity of A. acidocaldarius KASIII with different acyl-CoA substrates (acetyl-CoA, isobutyryl-CoA and 3-hydroxybutyryl-CoA (Sigma-Aldrich)) was ascertained by a coupled assay. The assay was performed in 96-well plate format with three replicates for each reaction condition. In a total volume of 100 μl for each reaction the reaction mix containing 100 μM holo-ACP, 200 μM malonyl-CoA, 10 mM DTT, 50 μM acyl-CoA substrate (either acetyl-CoA, isobutyryl-CoA or 3-hydroxy-butyryl-CoA) and 200 μM NADPH in 0.1 M sodium phosphate buffer (pH 7.2) was pre-incubated with 60 μg of FabD for two minutes. The reaction was started by the addition of 30 μg of FabG and varying concentrations of A. acidocaldarius (0.5-15 μg). Change in absorbance of NADPH that was being converted to NADP^+ during reduction of 3-ketoacyl-ACP 3-hydroxy-acyl-ACP by FabG was recorded at 340 nm using a Biotek multi-plate reader.
Spectrophotometric assay was used to assess the activity of A. acidocaldarius KASIII with various acyl-CoA substrates. The assay coupled the appearance of the KASIII-product (3-ketoacyl-ACP) to the oxidation of NADPH, catalyzed by 3-ketoacyl-ACP reductase (FabG).
KASIII enzymatic activity was ascertained via spectrophotometric assay, which coupled the appearance of 3-ketoacyl-ACP to the oxidation of NADPH, using the E. coli FabG protein to reduce 3-ketoacyl-ACP to 3-hydroxyacyl-ACP. The assay was performed in a 96-well plate-format with three technical replicates for each reaction condition. In a total volume of 100 μl for each reaction, the reaction mix contained 100 μM holo-ACP, 200 μM malonyl-CoA, 10 mM DTT, 50 μM acyl-CoA substrate, and 200 μM NADPH in 0.1 M sodium phosphate buffer (pH 7.2). This mixture was pre-incubated with 60 μg of FabD for two minutes to initiate synthesis of malonyl-ACP from malonyl-CoA and holo-ACP. The reaction was then started by the addition of 30 μg of FabG and varying concentrations of KASIII enzyme (0.5-15 μg). As KASIII catalysed the condensation of acyl-CoA with malonyl-ACP to form 3-ketoacyl-ACP, FabG reduced the 3-ketoacyl-ACP intermediate to 3-hydroxy-acyl ACP in the presence of NADPH.

[2] = Melting temperatures (Tm) of KASIII enzymes without ligand; format: physicochemical; details: in water, no ligand, baseline Tm
[3] = test system: B. subtilis ΔyjaXΔyhfB mutant strain; assay: Genetic complementation of B. subtilis ΔyjaXΔyhfB double mutant with KASIII genes; details: grown without exogenous branched-chain fatty acids, IPTG induced
Description: Genetic complementation of the B. subtilis ΔyjaXΔyhfB double mutant strain with aaKASIII, taKASIII or ecKASIII expression vectors was conducted using pUCB-erm-derived plasmids carrying the different KASIII ORF sequences. In these vectors each of the different KASIII ORFs were under the control of the Pspac promoter and were inserted between the downstream and upstream DNA fragments of the 135-bp ORF in the ΔyhfB allele of the ΔyjaXΔyhfB::erm double mutant.
The B. subtilis ΔyjaXΔyhfB mutant strain was used as a vehicle to screen for KASIII enzymes that can utilize branched-chain acyl-CoA substrates and can therefore synthesize branched-chain fatty acids, thereby rescuing the lethal ΔyjaXΔyhfB deletion phenotype. […] The resulting three B. subtilis ΔyjaXΔyhfB mutant strains, each expressing one of the recombinant KASIII genes (due to the inclusion of the inducer IPTG in the media), were grown in the absence of exogenously supplied branched-chain fatty acids.

[4] = Saturation Transfer Difference NMR of KASIII enzymes with acetyl-CoA or isobutyryl-CoA; format: binding
Description: NMR experiments were performed at 25° C. on a Bruker AV700 MHz spectrometer equipped with a 5 mm HCN cryoprobe. Samples for STD NMR experiments were prepared in 0.1 M sodium phosphate buffer (pH 7.4) with 5% D2O. The protein/ligand ratio was set as 1:100 with KASIII concentration in the 20-25 μM range. Saturation was applied as CW pulse with a power of 58-60 Hz, with on-resonance pulses at 0.62 ppm and 6.86 ppm for upfield and downfield, respectively. The off-resonance pulse was applied at 45 ppm. 3-9-19 WATERGATE suppression was used with a T1-ρ filter. Saturation time of five seconds with an additional delay of 5.1 seconds was used. A set of three replicates was acquired, with 32 scans in each replicate, for each STD NMR experiment of KASIII wild-type or mutated enzyme with a ligand, which was either acetyl-CoA or isobutyryl-CoA (Sigma-Aldrich, St. Louis, Mo.). The reference and the saturated spectra were obtained in an interleaved manner. Resonance assignments of 1H NMR spectra of free ligands were completed using ID 1H and COSY.
Control experiments were carried out by applying on- and off-resonance saturation pulses either to the ligand in the absence of protein, or to the ligand in the presence of denatured protein.
Relative STD effects (ASTD) were calculated according to the equation ASTD=(Io−Isat)/Io where Isat is the signal intensity of the saturated spectrum and Io is the signal intensity of the reference spectrum (Mayer et al., J. Am. Chem. Soc. 123: 6108-6117 (2001)). STD amplification factor was calculated according to the equation: STDaf=ASTD×molar ligand excess.
STD NMR experiments elucidated interactions of these purified enzymes (both wild-type and mutated) with straight-chain substrate (acetyl-CoA) and branched-chain substrate (isobutyryl-CoA) and enabled mapping of binding epitopes on the two substrates. Relative saturation transfer to each of the binding epitopes was measured and converted to the STD amplification factor (STDaf), which is an indicator of ligand binding (Mayer et al., J. Am. Chem. Soc. 123: 6108-6117 (2001)). Ligand epitopes with high STDaf values are assumed to receive higher saturation transfer from the enzyme, and thus are in close contact with the enzyme.

[5] = Kinetic parameters of aaKASIII and ecKASIII (spectrophotometric enzyme assay); format: biochemical
Description: Therefore, aaKASIII was assayed with 3-hydroxybutyryl-CoA as a substrate, and its specific activity was determined using an in vitro spectrophotometric enzyme assay. KASIII enzyme assays were carried out spectrophotometrically using 400 μM ACP, 400 μM malonyl-CoA, 10-400 μM various acyl-CoAs, 400 μM NADPH, 1 mM DTT, 6 mg/ml FabD, 1.5 mg/ml FabG, and either 4 mg/ml of aaKASIII or 9.5 mg/ml of ecKASIII. The specific activity for this reaction catalysed by aaKASIII was 5-fold and 3-fold higher with isobutyryl-CoA and 3-hydroxybutyryl-CoA, respectively, than that obtained with acetyl-CoA.

[6] = format: binding; details: ligand in 50-fold molar excess, relative to water control
[7] = test system: B. subtilis FabH deletion mutant; assay: Fatty acid production by recombinant KASIII in B. subtilis FabH deletion mutant; format: cell-based; details: B. subtilis FabH deletion mutant rescued by the recombinant KASIII

Molecule: E. coli KASIII Wild-type: E. coli 3-ketoacyl-ACP synthase III encoded by fabH, GenBank AAG55837.1, amino acid sequence SEQ ID NO:62
- Specific Activity with Acetyl-CoA ([1]; substrate acetyl-CoA, n.d. = not detectable): 447 ± 68 nmol/min/mg
- Specific Activity with Isobutyryl-CoA ([1]; n.d. = not detectable): 36 ± 14 nmol/min/mg
- Melting temperature (Tm) without ligand [2]: 55.0 ± 0.18 °C
- Melting temperature (Tm) without ligand ([2]; listed as ecKASIII): ~55.0 °C
- Rescue of the lethal phenotype of the B. subtilis ΔyjaXΔyhfB mutant strain [3]: could not
- STD amplification factor (STDaf), HAP proton of acetyl-CoA ([4]; protein/ligand 1:100, 25° C.): ~6.0
- STD amplification factor (STDaf), HB proton of isobutyryl-CoA ([4]; protein/ligand 1:100, 25° C.): ~4.0
- STD amplification factor (STDaf), HT proton of acetyl-CoA ([4]; protein/ligand 1:100, 25° C.): ~5.0
- STD amplification factor (STDaf), HT proton of isobutyryl-CoA ([4]; protein/ligand 1:100, 25° C.): 2.5
- Kinetic parameters (whole line) ([5]; substrate 3-OH-butyryl-CoA): not a substrate
- Km ([5]; substrate acetyl-CoA): 96.8 ± 4.7 µM
- Specific Activity ([5]; substrate acetyl-CoA): 447 ± 68 nmol/mg/min
- Vmax ([5]; substrate acetyl-CoA): 0.00033 ± 1e-05 µmol/s
- kcal ([5]; substrate acetyl-CoA): 0.0214 ± 0.00093 s⁻¹
- Kinetic parameters (whole line) ([5]; substrate isobutyryl-CoA): not a substrate
- Thermal shift: increase in Tm with acetyl-CoA ([6]; listed as ecKASIII): bound; also recorded: positive thermal shifts
- Thermal shift: increase in Tm with propionyl-CoA ([6]; listed as ecKASIII): bound; also recorded: positive thermal shifts

B1: B. subtilis KASIIIb Wild-type: B. subtilis KASIIIB, bfabHB (yhfB) locus, GenBank CAB12857.1, amino acid sequence SEQ ID NO:66 (protein)
chain: MSKAKITAIGTYAPSRRLTNADLEKIVDTSDEWIVQRTGMRERRIADEHQFTSDLCIEAVKNLKSRYKGTLDDVDMILVATTTSDYAFPSTACRVQEYFGWESTGALDINATCAGLTYGLHLANGLITSGLHQKILVIAGETLSKVTDYTDRTTCVLFGDAAGALLVERDEETPGFLASVQGTSGNGGDILYRAGLRNEINGVQLVGSGKMVQNGREVYKWAARTVPGEFERLLHKAGLSSDDLDWFVPHSANLRMIESICEKTPFPIEKTLTSVEHYGNTSSVSIVLALDLAVKAGKLKKDQIVLLFGFGGGLTYTGLLIKWGM
modifications: B. subtilis
- Specific Activity with Isobutyryl-CoA ([1]; n.d. = not detectable): 279 ± 8 nmol/min/mg
- Melting temperature (Tm) without ligand [2]: 48.7 ± 0.24 °C
- Melting temperature (Tm) without ligand ([2]; listed as bsKASIIIb): ~48.7 °C
- Thermal shift: increase in Tm with 3-hydroxybutyryl-CoA [6]: thermally stabilized
- Thermal shift: increase in Tm with butyryl-CoA [6]: ≥ 6 °C
- Thermal shift: increase in Tm with crotonyl-CoA [6]: ≥ 6 °C
- Thermal shift: increase in Tm with isobutyryl-CoA [6]: ≥ 6 °C
- Thermal shift: increase in Tm with isovaleryl-CoA [6]: ≥ 6 °C
- Thermal shift: increase in Tm with methylmalonyl-CoA [6]: ≥ 6 °C
- Thermal shift: increase in Tm with phenylacetyl-CoA [6]: ≥ 6 °C
- Thermal shift: increase in Tm with propionyl-CoA [6]: ≥ 6 °C
- Thermal shift: increase in Tm with benzoyl-CoA ([6]; listed as bsKASIIIb): destabilized the bsKASIIIb protein
- Thermal shift: increase in Tm with hexanoyl-CoA ([6]; listed as bsKASIIIb): destabilized the bsKASIIIb protein

B2: KASIII from Bacteroides vulgatus: KASIII from Bacteroides vulgatus, GenBank ABR38167.1 (protein, UniProt A6KXK3 1-334, looked up)
Beta-ketoacyl-[acyl-carrier-pr …: MEKINAVITGVGGYVPDYVLTNEEISRMVDTNDEWIMTRIGVKERRILNEEGLGTSYMARKAAKQLMQKTASNPDDIDAVIVATTTPDYHFPSTASILCDKLGLKNAFAFDLQAACCGFLYLMETAASLIASGRHKKIIIVGADKMSSMVNYQDRATCPIFGDGAAACMVEATTEDYGIMDSILRTDGKGLPFLHMKAGGSVCPPSYFTVDHKMHYLYQEGRTVFKYAVSNMSDITATIAEKNGLNKDNIDWVIPHQANLRIIDAVASRLEVPLEKVMINIQRYGNTSGATLPLCLWDYEKQLKKGDNLIFTAFGAGFTYGAVYVKWGYDGSKR
- Substrate preference in the spectrophotometric assay ([1]; acetyl-CoA, isobutyryl-CoA and 3-hydroxybutyryl-CoA tested): higher preference for isobutyryl-CoA and 3-hydroxybutyryl-CoA as compared to acetyl-CoA
- Fatty acid content: Anteiso-fatty acids [7]: 70.43 mole %
- Fatty acid content: Even-number iso-fatty acids [7]: 1.73 mole %
- Fatty acid content: Even-number normal fatty acids [7]: 9.51 mole %
- Fatty acid content: Odd-number iso-fatty acids [7]: 18.24 mole %
- Fatty acid content: Odd-number normal fatty acids [7]: 0.09 mole %

B3: B. subtilis KASIIIa M213L: B. subtilis KASIIIA single mutant M213L, amino acid sequence SEQ ID NO:122 (protein)
chain: MKAGILGVGRYIPEKVLTNHDLEKMVETSDEWIRTRTGIEERRIAADDVFSSHMAVAAAKNALEQAEVAAEDLDMILVATVTPDQSFPTVSCMIQEQLGAKKACAMDISAACAGFMYGVVTGKQFIESGTYKHVLVVGVEKLSSITDWEDRNTAVLFGDGAGAAVVGPVSDDRGILSFELGADGTGGQHLYLNEKRHTIMNGREVFKFAVRQLGESCVNVIEKAGLSKEDVDFLIPHQANIRIMEAARERLELPVEKMSKTVHKYGNTSAASIPISLVEELEAGKIKDGDVVVMVGFGGGLTWGAIAIRWGR
modifications: B. subtilis KASIIIA mutant; (213)..(213) methionine at amino acid position 213 replaced with leucine
- Specific Activity with Isobutyryl-CoA ([1]; n.d. = not detectable): 156 ± 47 nmol/min/mg
- Decrease in STDaf for acetyl-CoA HT proton ([4]; mutant vs wild-type): 40%
- Decrease in saturation transfer/STDaf for isobutyryl-CoA HT and HB protons in comparison to the wild-type ([4]; mutant vs wild-type): 60-70%
